These results are taken from PMC10397247.

Assay [1] concerns the target T1, 4H3940-AA.
T1 chain: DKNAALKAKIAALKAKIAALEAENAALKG
Briefly: two-hybrid library CCmax.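 Further: natural log of median RNA to DNA barcode read ratio; higher means stronger binding.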 Particulars: mean of both orientations.

The target of assay [2] is T2, 4H816-AA.
T2 chain: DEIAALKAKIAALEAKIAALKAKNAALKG
Briefly: two-hybrid library CCmax.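 Further: natural log of median RNA to DNA barcode read ratio; higher means stronger binding.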 Conditions: mean of both orientations.

The target of assay [3] is T3, 4H3625-AA.
T3 chain: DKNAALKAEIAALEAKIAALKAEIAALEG
Briefly: two-hybrid library CCmax.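 Further: natural log of median RNA to DNA barcode read ratio; higher means stronger binding.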 Conditions: mean of both orientations.

For assay [4], the target named is T4, 4H2985-AA.
T4 chain: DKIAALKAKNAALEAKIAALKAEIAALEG
Briefly: two-hybrid library CCmax.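 Further: natural log of median RNA to DNA barcode read ratio; higher means stronger binding.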

In assay [5] the target is T5, 4H775-AA.
T5 chain: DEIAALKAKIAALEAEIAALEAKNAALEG
Briefly: two-hybrid library CCmax. Particulars: mean of both orientations.

Assay [6] addresses T6, 4H510-AA.
T6 chain: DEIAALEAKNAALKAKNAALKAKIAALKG
Briefly: two-hybrid library CCmax. Particulars: mean of both orientations.

In assay [7] the target is T7, 4H87-AA.
T7 chain: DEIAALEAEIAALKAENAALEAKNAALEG
Briefly: two-hybrid library CCmax. Conditions: mean of both orientations.

In assay [8] the target is T8, 4H390-AA.
T8 chain: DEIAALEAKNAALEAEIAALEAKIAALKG
Put plainly: two-hybrid library CCmax. Particulars: mean of both orientations.

For assay [9], the target named is T9, 4H3134-AA.
T9 chain: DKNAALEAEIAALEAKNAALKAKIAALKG
Briefly: two-hybrid library CCmax. Conditions: mean of both orientations.

In assay [10] the target is T10, 4H3409-AA.
T10 chain: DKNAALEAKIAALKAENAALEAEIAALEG
Briefly: two-hybrid library CCmax. Conditions: mean of both orientations.

Assay [11] concerns the target T11, 4H967-bA.
T11 chain: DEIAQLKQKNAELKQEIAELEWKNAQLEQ
Put plainly: two-hybrid library CCNG1.

Assay [12] addresses T12, 4H968-bA.
T12 chain: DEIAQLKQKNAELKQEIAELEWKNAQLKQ
Put plainly: two-hybrid library CCNG1.

The target in assay [13] is T13, O7-bA.
T13 chain: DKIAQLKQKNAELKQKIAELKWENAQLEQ
Briefly: two-hybrid library CCNG1.

The target in assay [14] is T14, 4H953-bA.
T14 chain: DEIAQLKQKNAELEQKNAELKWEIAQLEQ
Put plainly: two-hybrid library CCNG1.

Assay [15] has as its target T15, O8-bA.
T15 chain: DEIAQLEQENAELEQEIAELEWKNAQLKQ
Briefly: two-hybrid library CCNG1.

Assay [16] concerns the target T16, O9-bA.
T16 chain: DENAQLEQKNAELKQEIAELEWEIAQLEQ
Briefly: two-hybrid library CCNG1.

Assay [17] deals with T17, 4H3613-bA.
T17 chain: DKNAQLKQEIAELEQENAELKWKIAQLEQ
Put plainly: two-hybrid library CCNG1.

In assay [18] the target is T18, 4H591-bA.
T18 chain: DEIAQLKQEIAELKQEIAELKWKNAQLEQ
Briefly: two-hybrid library CCNG1.

The target of assay [19] is T19, 4H906-bA.
T19 chain: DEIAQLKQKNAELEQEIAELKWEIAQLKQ
Briefly: two-hybrid library CCNG1.

Assay [20] has as its target T20, 4H3628-bA.
T20 chain: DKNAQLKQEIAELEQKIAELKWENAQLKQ
Briefly: two-hybrid library CCNG1.

Assay [21] deals with T21, 4H3926-bA.
T21 chain: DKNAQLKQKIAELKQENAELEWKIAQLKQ
Briefly: two-hybrid library CCNG1.

Assay [22] has as its target T22, 4H626-bA.
T22 chain: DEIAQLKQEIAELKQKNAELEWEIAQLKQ
Put plainly: two-hybrid library CCNG1.

In assay [23] the target is T23, 4H3497-bA.
T23 chain: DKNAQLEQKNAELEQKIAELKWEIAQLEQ
Briefly: two-hybrid library CCNG1.

For assay [24], the target named is T24, 4H993-AA.
T24 chain: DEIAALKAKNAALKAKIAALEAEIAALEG
Briefly: two-hybrid library CCmax. Particulars: mean of both orientations.

The target of assay [25] is T25, 4H717-AA.
T25 chain: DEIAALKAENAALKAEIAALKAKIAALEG
Briefly: two-hybrid library CCmax.

For assay [26], the target named is T26, 4H794-AA.
T26 chain: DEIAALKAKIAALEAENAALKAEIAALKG
Put plainly: two-hybrid library CCmax. Particulars: mean of both orientations.

In assay [27] the target is T27, 4H780-AA.
T27 chain: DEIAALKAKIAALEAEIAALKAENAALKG
Briefly: two-hybrid library CCmax. Particulars: mean of both orientations.

Assay [28] addresses T28, 4H797-AA.
T28 chain: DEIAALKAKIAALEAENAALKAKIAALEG
Put plainly: two-hybrid library CCmax.

The target of assay [29] is T29, 4H967-AA.
T29 chain: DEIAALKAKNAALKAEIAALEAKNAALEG
Put plainly: two-hybrid library CCmax. Particulars: mean of both orientations.

In assay [30] the target is T30, 4H881-AA.
T30 chain: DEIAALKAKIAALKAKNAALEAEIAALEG
Briefly: two-hybrid library CCmax. Conditions: mean of both orientations.

The target in assay [31] is T31, 4H883-AA.
T31 chain: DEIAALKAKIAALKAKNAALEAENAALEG
Put plainly: two-hybrid library CCmax. Conditions: mean of both orientations.

For assay [32], the target named is T32, 4H918-AA.
T32 chain: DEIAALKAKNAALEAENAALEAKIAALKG
Put plainly: two-hybrid library CCmax. Conditions: mean of both orientations.

Assay [33] addresses T33, 4H953-AA.
T33 chain: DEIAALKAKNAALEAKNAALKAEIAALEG
Put plainly: two-hybrid library CCmax. Particulars: mean of both orientations.

Assay [34] has as its target T34, 4H906-AA.
T34 chain: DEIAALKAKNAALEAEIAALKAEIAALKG
Briefly: two-hybrid library CCmax. Conditions: mean of both orientations.

The target in assay [35] is T35, APC3354-AA.
T35 chain: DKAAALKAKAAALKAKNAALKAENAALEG
Put plainly: two-hybrid library CCmax. Conditions: mean of both orientations.

In assay [36] the target is T36, APC4100-AA.
T36 chain: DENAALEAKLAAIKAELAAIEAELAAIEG
Put plainly: two-hybrid library CCmax. Particulars: mean of both orientations.

For assay [37], the target named is T37, APC7524-AA.
T37 chain: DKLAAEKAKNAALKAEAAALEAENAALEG
Put plainly: two-hybrid library CCmax. Particulars: mean of both orientations.

For assay [38], the target named is T38, APC9291-AA.
T38 chain: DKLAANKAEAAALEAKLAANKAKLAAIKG
Put plainly: two-hybrid library CCmax. Conditions: mean of both orientations.

For assay [39], the target named is T39, APC9141-AA.
T39 chain: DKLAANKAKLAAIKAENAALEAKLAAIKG
Briefly: two-hybrid library CCmax. Conditions: mean of both orientations.

Assay [40] deals with T40, APC8401-AA.
T40 chain: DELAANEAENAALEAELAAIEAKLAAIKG
Put plainly: two-hybrid library CCmax. Particulars: mean of both orientations.

The target in assay [41] is T41, APC6088-AA.
T41 chain: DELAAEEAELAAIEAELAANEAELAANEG
Put plainly: two-hybrid library CCmax. Conditions: mean of both orientations.

Assay [42] has as its target T42, APC5531-AA.
T42 chain: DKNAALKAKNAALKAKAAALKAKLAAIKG
Put plainly: two-hybrid library CCmax. Conditions: mean of both orientations.

For assay [43], the target named is T43, APC5009-AA.
T43 chain: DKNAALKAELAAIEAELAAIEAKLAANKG
Put plainly: two-hybrid library CCmax. Conditions: mean of both orientations.

The target in assay [44] is T44, APC8516-AA.
T44 chain: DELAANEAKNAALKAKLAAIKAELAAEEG
Briefly: two-hybrid library CCmax. Particulars: mean of both orientations.

The target in assay [45] is T45, APC9806-AA.
T45 chain: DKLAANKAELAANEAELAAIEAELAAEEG
Put plainly: two-hybrid library CCmax. Conditions: mean of both orientations.

Assay [46] deals with T46, APC542-AA.
T46 chain: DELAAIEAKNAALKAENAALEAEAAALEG
Put plainly: two-hybrid library CCmax. Particulars: mean of both orientations.

For assay [47], the target named is T47, APC3323-AA.
T47 chain: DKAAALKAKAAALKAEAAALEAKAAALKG
Put plainly: two-hybrid library CCmax.

Assay [48] has as its target T48, APC9182-AA.
T48 chain: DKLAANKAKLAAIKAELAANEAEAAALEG
Briefly: two-hybrid library CCmax. Conditions: mean of both orientations.

The target of assay [49] is T49, APC4336-AA.
T49 chain: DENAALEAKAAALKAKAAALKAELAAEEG
Briefly: two-hybrid library CCmax. Particulars: mean of both orientations.

The target of assay [50] is T50, APC3881-AA.
T50 chain: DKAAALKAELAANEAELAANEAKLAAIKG
Put plainly: two-hybrid library CCmax. Particulars: mean of both orientations.

Assay [51] addresses T51, 4H94-AA.
T51 chain: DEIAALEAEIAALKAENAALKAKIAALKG
Briefly: two-hybrid library CCmax. Particulars: mean of both orientations.

For assay [52], the target named is T52, 4H930-AA.
T52 chain: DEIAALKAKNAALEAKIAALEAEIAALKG
Put plainly: two-hybrid library CCmax. Conditions: mean of both orientations.

For assay [53], the target named is T53, 4H891-AA.
T53 chain: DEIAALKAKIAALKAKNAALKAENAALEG
Briefly: two-hybrid library CCmax. Particulars: mean of both orientations.

Assay [54] has as its target T54, 4H850-AA.
T54 chain: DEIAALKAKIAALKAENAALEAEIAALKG
Briefly: two-hybrid library CCmax. Particulars: mean of both orientations.

Assay [55] has as its target T55, 4H909-AA.
T55 chain: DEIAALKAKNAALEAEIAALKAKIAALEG
Briefly: two-hybrid library CCmax. Particulars: mean of both orientations.

As to DKIAALKAKNAALEAKIAALKAEIAALEG [4H2985-AA], the interaction score in [1] is -0.918; in [2], -0.519; in assay [3], 0.889; in assay [4], 0.681; in assay [5], -0.922; in assay [6], -0.541. Besides, the interaction score in assay [7] was -1.48; in [8], 1.71; in assay [9], -0.682; in assay [10] it was -0.847.

On to DEIAQLKQKNAELEQKNAELKWEIAQLEQ [4H953-bA], for which the interaction score in assay [11] was -1.11; in assay [12] it was -1.33; in [13] it was -0.716; in [14], -0.648.

Regarding DENAQLEQEIAELEQKNAELKWEIAQLEQ [O5-bA], the interaction score was -0.893 in assay [15], -0.303 in [13] and -0.954 in assay [16].

DKIAQLKQKNAELKQKIAELKWENAQLEQ [O7-bA]: the interaction score was 2.08 in assay [15], -1.12 in [13] and -0.962 in assay [16].

As for DKNAQLEQKNAELEQKIAELKWEIAQLEQ [4H3497-bA], the interaction score in assay [17] was -1.15; in assay [18] it was -1.08; in [19], -1.2; in assay [20] it was -0.547; in [21] it was -1.24; in [22] it was -1.45. In addition, the interaction score in assay [23] is -0.278.

On to DEIAALKAENAALKAEIAALKAKIAALEG [4H717-AA], for which the interaction score in [24] was 0.0522; in [25], 1.89; in [26] it was -1.37; in assay [27], -1.38; in [28], -1.4; in assay [29], -0.559. In addition, the interaction score in assay [30] was -1.15; in assay [31], -1.82; in [32], -1.34; in assay [33] it was -1.87; in [34] it was -1.19.

With DKAAALKAKAAALKAEAAALEAKAAALKG [APC3323-AA], the interaction score in assay [35] was -1.64; in [36], 1.59; in [37] it was -1.5; in assay [38], -1.84; in assay [39] it was -2.12; in assay [40], -1.35. The interaction score in assay [41] was -1.65; in assay [42], -1.7; in assay [43] it was -1.38; in assay [44], -1.75; in assay [45], -1.66; in [46] it was -1.45. Moreover, the interaction score in assay [47] is 0.173; in assay [48], -1.64; in [49], -2.27; in assay [50], -1.64.

On to DKNAQLKQKIAELKQENAELEWKIAQLKQ [O6-bA], for which the interaction score turned out to be 1.39 in assay [15], 0.795 in assay [13] and 0.339 in [16].

For the molecule DEIAALKAKIAALEAENAALKAKIAALEG [4H797-AA], the interaction score in assay [51] is 0.948; in assay [52], -1.72; in [53], -1.35; in [28] it was 1.76; in assay [29] it was -1.81; in [54] it was 1.16. In addition, the interaction score in [31] was -1.4; in [32], -0.389; in [33] it was -0.955; in assay [55] it was -0.899.
